# Test results: the DeepSol protein solubility set
# Experiment: soluble on expression in E. coli; label from the status in PepcDB or PDB records
row,Sequence,soluble on expression in E. coli
1,MFCKRFIALVTMLTLVCSMLLPYSNASAETGSALNIEAGAAILVEANSGKILYQKNADELLSIASMTKMMSEYLVHEAVDKGKFKWDQKIKVSEYAYKVSQDASLSNVALENGGSYTVKELYEAMAIFSANGATIALAEAIAGKEVDFVKMMNDKSKELGLKNYKFVNSTGLTNKDLKGMHPEGTTADEENKMSAKDVATLAQHLIKDYPKVLDTAKIPKKEFRPEKEKFAMSNWNWMLKGLVKEYDGVDGLKTGSTPEAGDCFTGTVERNGMRFISVVIKTSSHTARFDETKKLYDYGFANFEMKQMYKKGSSVKGQETVRVENAKDKDVAVQTKQAISLPVPKGSKEVYKTELKESSKGQEAPIKKGAALGQMVITPKDTNDPGFLTGKSLQVDLVTTSEVEEANWFTRAMRGIGSFFSGIWNSAVDTVKGWF,not soluble
2,MFCTLAGYRWLNSGSLLRRLSQRAVRRLPTAPLCHLHNGATESAASNGALRIVDEKVAYRRYATVFERTVQYPDGRHVTYDILGQPAVQSASVLVFPFDTQSKTCYVIREYCPGPNRVLYGFPAGMVETKHESLEAAARAELSEEAHLRCAQLIDLTAQAAVWERSFEVPNTASDAENCLRGFFADKYSRNVCKMYLALNPEPDGHPGSMDAEELIEQVGAVRVPQLEAWLWSGQMTMPHMLLAMCALTYLRQRGMLT,not soluble
3,MFDIGFSELLLVFVIGLIVLGPQRLPVAVKTVAGWIRALRSLATTVQNELTQELKLQEFQDSLKKVEKASLENLTPELKASMDELRQAAESMKRTYSANDPEQASDEAHTIHNPVVKGNETQHEGVTPAAAETQASAPEQKPEPVKANVPESTETASVATIDAEKKSAAPVVESSPSSSDKPLEHHHHHH,not soluble
4,MFEKVIKLWRDTFPKSEHKLMSIEYVAAIEEFNEYFPGYAAMNDSNYSKLQHFFRSLHPIGCIKPFRFHYSSAFALENSLDDYLLKNAQFKRDGLAGEWAIHIFADHNDHIIEKYRMYKKKRLEKLERTFEERKKKAER,not soluble
5,MFKPELLSPAGTLKNMRYAFAYGADAVYAGQPRYSLRVRNNEFNHENLQLGINEAHALGKKFYVVVNIAPHNAKLKTFIRDLKPVVEMGPDALIMSDPGLIMLVREHFPEMPIHLSVQANAVNWATVKFWQQMGLTRVILSRELSLEEIEEIRNQVPDMEIEIFVHGALCMAYSGRCLLSGYINKRDPNQGTCTNACRWEYNVQEGKEDDVGNIVHKYEPIPVQNVEPTLGIGAPTDKVFMIEEAQRPGEYMTAFEDEHGTYIMNSKDLRAIAHVERLTKMGVHSLKIEGRTKSFYYCARTAQVYRKAIDDAAAGKPFDTSLLETLEGLAHRGYTEGFLRRHTHDDYQNYEYGYSVSDRQQFVGEFTGERKGDLAAVAVKNKFSVGDSLELMTPQGNINFTLEHMENAKGEAMPVAPGDGYTVWLPVPQDLELNYALLMRNFSGETTRNPHGK,not soluble
6,MFKVNEYFDGTVKSIAFSQAEGQATIGVMAAGEYEFGTAQREIMHVISGELNVKLPDSTDWETFSTGSQFNVPANSKFQLKVSVDTAYLCEYR,not soluble
7,MFLKILPRIRRPTRSYAAVLAARHEGFAKVMQSDLMAFENFLGQDAVKKDDITNHTTDWTGQFKGPGSVVLYPKSTEEVSAILAYCSKNKLAVVPQGGNTGLVGGSIPVHDEVVISMNKINKQFSFDDTMGILKCDSGFILEDLDNKLAKLGYMMPFDLGAKGSCQIGGNIATCAGGIRLIRYGSLHAHLLGLTVVLPDEHGTVLHLGSSIRKDNTTLHTPHLFLGSEGQLGVITSVTMTAVPKPKSVQSAMLGIESFKKCCEVLKLAKSSLTEILSSFELLDDATMECLKTNLGLHPVLNAPTPFSILVETSGSNEDHDMEKMSAFLDECLSKNLIIDGVLAGSSAEATKMWQLRESAPLAVTRDGYVYKHDVSLPLENYYELTNVMKERCGSLAKRIVTYGHLGDGNTHLNITSEKHNEELEKLLYPFLYEWVVDHGGSISAEHGIGQLKLPYSTFGKDPEERLLTKKLKNIFDPNGILNPYKTI,not soluble
8,MFLVTGATGDIGRRVIRLLREHNHSVRGFARLTSRYGELEHRGANIFIGDLRREQDIEKACQGVQYIISAHGSDNDALTLDYRANIALIDQAKANGVQHFVFISVLGAERGYEDAPVFKAKRAVENYLAASGLNYTILRPAGLASNLLPLAERFRETGLYLLIGDPKNRTSIVSTDDLARIVVDSVTVPEARNQIFSVGGPEILLREDIPQIFSHIFKKEPIVVNSPLLVIDGLRGVLGLINPEAQQALGTFRTLLSNEFFCRKDEIAKLEQTFNFPLETLESFLRRYLAVLEHHHHHH,not soluble
9,MFMGKLPHQADLIGALIEAAGANGIRAGAIQVIGALQGAKLGFYDQWSKSYRELPFAKPLEIVSGLGNISLRDGRPFVHLHLSISDEEGKVFGGHALEGCTIFAAEYAIMPLPGSAPVRVFDETTGLFLWEREQYPASGQKGLSPELERALLNPLEHHHHHH,soluble
10,MFPILETDRLILRQITDQDAEAIFACFSNDEVTRYYGLENMESIEQAISMIQTFAALYQEKRGIRWGIERRDTKELIGTIGFHALAQKHRRAEIGYEIIPEHWRNGFASEVISKVVSYGFSALGLSRIGAVVFTDNEASNRLLLKMGFQKEGVLRQYMYSKWDSI,not soluble
11,MFQIYEIFSSVFNFDPKMPENVGVKEDDDKVFAKEIAQLEEEFEANTLKAESLEKEIAYSKVQIETENVKFAAIEQEKAIEIIKLEKQIKIMEAKLDFMKQDPIEIEEIEKLKHRVEEETQRNTEYAESLKYIKEMIRIKKAEKNEKKQKNAIDN,not soluble
12,MFRHVAQNLGSRNTSIQSYRLLRTRWERGYLKDLYHRRQILGADPAISRSSYPNCSVQVRNHHCSADKSTLQWAPIKTSIDNSSDDFAANTAEMKVLVEDLKAKISKIEQAGGEKAVKLHRSRGKMLARERIDGIVDAGSPFIEFSQLAGYEMYGKEEVPSGGILTGVGIVSGRVCVIVANDATVKGGTYYPITVKKHLRAQEIARENKLPCIYLVDSGGANLPRQADIFADSQHFGRIFYNQATMSSEGIPQLAVVMGSCTAGGAYVPAMSDQAIIVKGTGTVFLGGPPLVKAATGEEISAEELGGADLHCGESGVTDYYAHNDKHALYLARSCIAGLPPVEEHMTFNPNADEPLYPAEEIYGIVGSNLKKTYDVREVIARIVDGSRFHEFKERYGETLVTGFATIYGQRVGILANNGVLFAESAMKGSHFIELCCQRKIPLLFLQNITGFMVGRDAEAGGIAKHGAKLVTAVACAKVPKITVLVGGSYGAGNYGMCGRGYSPRYVFMWPNSRISVMGGEQAANVLSTVQKEKKKREGADWTDQQDLELRKPVEEKFEKEGHPYFASARLWDDGVIDPKDTRKVLGLAFQSTLQKPIPETKFGVFRM,not soluble
13,MFRKLGSSGSLWKPKNPHSLEYLKYLQGVLTKNEKVTENNKKILVEALRAIAEILIWGDQNDASVFDFFLERQMLLYFLKIMEQGNTPLNVQLLQTLNILFENIRHETSLYFLLSNNHVNSIISHKFDLQNDEIMAYYISFLKTLSFKLNPATIHFFFNETTEEFPLLVEVLKLYNWNESMVRIAVRNILLNIVRVQDDSMIIFAIKHTKEYLSELIDSLVGLSLEMDTFVRSAENVLANRERLRGKVDDLIDLIHYIGELLDVEAVAESLSILVTTRYLSPLLLSSISPRRDNHSLLLTPISALFFFSEFLLIVRHHETIYTFLSSFLFDTQNTLTTHWIRHNEKYCLEPITLSSPTGEYVNEDHVFFDFLLEAFDSSQADDSKAFYGLMLIYSMFQNNADVGELLSAANFPVLKESTTTSLAQQNLARLRIASTSSISKRTRAITEIGVEATEEDEIFHDVPEEQTLEDLVDDVLVDTENSAISDPEPKNVESESRSRFQSAVDELPPPSTSGCDGRLFDALSSIIKAVGTDDNRIRPITLELACLVIRQILMTVDDEKVHTSLTKLCFEVRLKLLSSIGQYVNGENLFLEWFEDEYAEFEVNHVNFDIIGHEMLLPPAATPLSNLLLHKRLPSGFEERIRTQIVFYLHIRKLERDLTGEGDTELPVRVLNSDQEPVAIGDCINLHNSDLLSCTVVPQQLCSLGKPGDRLARFLVTDRLQLILVEPDSRKAGWAIVRFVGLLQDTTINGDSTDSKVLHVVVEGQPSRIKKRHPVLTAKFIFDDHIRCMAAKQRLTKGRQTARGLKLQAICSALGVPRIDPATMTSSPRMNPFRIVKGCAPGSVRKTVSTSSSSSQGRPGHYSANLRSASRNAGMIPDDPTQPSSSSERRS,not soluble
14,MFRVQTLNQIAEKGLQVFTEERYEVGDRINHPDGILLRSYSLHQEEFSKDLKAIARAGAGVNNIPVERCTEKGIVVFNTPGANANAVKELIIASLIMSSRNIINGVSWTKNLEGEEVPQLVESGKKQFVGSEIAGKRLGVIGLGAIGALVANDALALGMDVIGYDPYISVETAWRLSTHVQRAFSLDEIFATCDYITLHIPLTNQTKGIIGEHAVEKMKRGMRLFNFSRGELVDEKVLQKALEEDIITHYVTDFPNENVIKMKNVTATPHLGASTSESEENCAVMAARQLREYLETGNIRNSVNYPNVELPYIGKKRITIMHQNVPNMVGQITGCLAEHHINIADMTNRSKHSWAYTMIDIDNGIDDIIKENIVENISKITGVVAVRMIV,not soluble
15,MFSAGHKIKGTVVLMPKNELEVNPDGSAVDNLNAFLGRSVSLQLISATKADAHGKGKVGKDTFLEGINTSLPTLGAGESAFNIHFEWDGSMGIPGAFYIKNYMQVEFFLKSLTLEAISNQGTIRFVCNSWVYNTKLYKSVRIFFANHTYVPSETPAPLVSYREEELKSLRGNGTGERKEYDRIYDYDVYNDLGNPDKSEKLARPVLGGSSTFPYPRRGRTGRGPTVTDPNTEKQGEVFYVPRDENLGHLKSKDALEIGTKSLSQIVQPAFESAFDLKSTPIEFHSFQDVHDLYEGGIKLPRDVISTIIPLPVIKELYRTDGQHILKFPQPHVVQVSQSAWMTDEEFAREMIAGVNPCVIRGLEEFPPKSNLDPAIYGDQSSKITADSLDLDGYTMDEALGSRRLFMLDYHDIFMPYVRQINQLNSAKTYATRTILFLREDGTLKPVAIELSLPHSAGDLSAAVSQVVLPAKEGVESTIWLLAKAYVIVNDSCYHQLMSHWLNTHAAMEPFVIATHRHLSVLHPIYKLLTPHYRNNMNINALARQSLINANGIIETTFLPSKYSVEMSSAVYKNWVFTDQALPADLIKRGVAIKDPSTPHGVRLLIEDYPYAADGLEIWAAIKTWVQEYVPLYYARDDDVKNDSELQHWWKEAVEKGHGDLKDKPWWPKLQTLEDLVEVCLIIIWIASALHAAVNFGEYPYGGLIMNRPTASRRLLPEKGTPEYEEMINNHEKAYLRTITSKLPTLISLSVIEILSTHASDEVYLGQRDNPHWTSDSKALQAFQKFGNKLKEIEEKLVRRNNDPSLQGNRLGPVQLPYTLLYPSSEEGLTFRGIPNSISI,soluble
16,MFSGFSSFGGGNGFVNMPQTFEEFFRCYPIAMMNDRIRKDDANFGGKIFLPPSALSKLSMLNIRYPMLFKLTANETGRVTHGGVLEFIAEEGRVYLPQWMMETLGIQPGSLLQISSTDVPLGQFVKLEPQSVDFLDISDPKAVLENVLRNFSTLTVDDVIEISYNGKTFKIKILEVKPESSSKSICVIETDLVTDFAPPVGYVEPDYKALKAQQDKEKKNSFGKGQVLDPSVLGQGSMSTRIDYAGIANSSRNKLSKFVGQGQNISGKAPKAEPKQDIKDMKITFDGEPAKLDLPEGQLFFGFPMVLPKEDEESAAGSKSSEQNFQGQGISLRKSNKRKTKSDHDSSKSKAPKSPEVIEID,soluble
17,MFTCKVNEHITIRLLEPKDAERLAELIIQNQQRLGKWLFFAENPSSADTYRETIIPDWRRQYADLNGIEAGLLYDGSLCGMISLHNLDQVNRKAEIGYWIAKEFEGKGIITAACRKLITYAFEELELNRVAICAAVGNEKSRAVPERIGFLEEGKARDGLYVNGMHHDLVYYSLLKREWEGEKLEHHHHHH,not soluble
18,MFTDSTAKTVAPYTWKTDAGARATSTSDCIVLVLNGNNPIVADVQSCNADTTLPALGVMCGKRAWVY,soluble
